The labels stand for the following.
T1: full-length beta-catenin (UniProt P35222 2-781, limits assumed)
T1 construct: mature; also called full-length ß-Catenin; β-catenin
T1 sequence (looked up): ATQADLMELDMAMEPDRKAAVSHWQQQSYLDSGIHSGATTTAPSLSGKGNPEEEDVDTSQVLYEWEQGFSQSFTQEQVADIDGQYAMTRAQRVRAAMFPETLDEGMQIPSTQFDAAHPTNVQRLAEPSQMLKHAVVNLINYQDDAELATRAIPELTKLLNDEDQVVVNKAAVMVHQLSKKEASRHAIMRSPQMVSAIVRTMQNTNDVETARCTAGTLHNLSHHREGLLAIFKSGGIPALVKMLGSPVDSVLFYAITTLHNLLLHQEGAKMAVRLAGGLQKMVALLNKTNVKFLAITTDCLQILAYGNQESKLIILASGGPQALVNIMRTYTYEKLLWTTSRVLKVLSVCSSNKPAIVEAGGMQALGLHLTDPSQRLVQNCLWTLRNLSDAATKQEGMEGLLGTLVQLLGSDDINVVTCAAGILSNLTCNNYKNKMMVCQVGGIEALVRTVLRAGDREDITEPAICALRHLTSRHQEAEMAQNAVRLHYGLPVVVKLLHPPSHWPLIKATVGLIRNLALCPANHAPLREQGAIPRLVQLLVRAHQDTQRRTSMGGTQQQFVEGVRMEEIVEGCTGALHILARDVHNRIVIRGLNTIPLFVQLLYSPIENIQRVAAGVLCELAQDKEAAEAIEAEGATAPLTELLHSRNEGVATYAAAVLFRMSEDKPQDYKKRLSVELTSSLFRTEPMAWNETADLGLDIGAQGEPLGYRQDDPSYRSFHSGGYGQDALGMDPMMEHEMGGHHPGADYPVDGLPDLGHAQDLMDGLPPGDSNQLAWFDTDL

B1: FP0495a (peptide)
peptide: Ac-A[R7]ILDAHI[MD]RVW-NH2
modifications: staple 2-9; not fully specified; printed as Ac-A-R7-I-L-D-A-H-I-MD-R-V-W-NH2; also: amino staple R7/MD (-N(R')-, after CO2 extrusion from carbamate staple)
B2: FP0365c Isomer 1 (peptide)
peptide: AXILDAHIXAVW
modifications: not fully specified; Ac-A-R8-I-L-D-A-H-I-MB-1NapA-V-W-NH2; carbamate staple R8/MB
B3: FP0365c Isomer 2 (peptide)
peptide: AXILDAHIXAVW
modifications: not fully specified; Ac-A-R8-I-L-D-A-H-I-MB-1NapA-V-W-NH2; carbamate staple R8/MB
B4: FP0570c Isomer 2 (peptide)
peptide: Ac-A[R8]ILDA[2Pal]I[MB(6)][Aib]VW-NH2
modifications: staple 2-9; not fully specified; printed as Ac-A-R8-I-L-D-A-2pyr-I-MB-Aib-V-W-NH2
B5: FP0570c Isomer 1 (peptide)
peptide: Ac-A[R8]ILDA[2Pal]I[MB(6)][Aib]VW-NH2
modifications: staple 2-9; not fully specified; printed as Ac-A-R8-I-L-D-A-2pyr-I-MB-Aib-V-W-NH2

These results are taken from US11198713B2, “Agents modulating beta-catenin functions and methods thereof” (FOG PHARMACEUTICALS, INC., priority 2017, dated 2021).

Converted amounts (≈) assume the structure as drawn. Numbered stars: 1 amine (or outer) side, 2 acyl side, 3 side chain; on linkers, the order of the positions; unused ones are H or OH. Bridge positions count the residues as written; N and C are the ends. Square brackets hold non-standard residues; d marks the D form. Primed or numbered codes have the meaning given here. Peptide text beside a SMILES is read from it. * marks the point of attachment. MB(10) = Monomer B = PyrS, pyrrolidine stapling residue with allyl carbamate, (S)-3-amino-1-(allyloxycarbonyl)pyrrolidine-3-carboxylic acid, C=CCOC(=O)N1CC[C@@](N[*:1])(C(=O)[*:2])C1; MB(4) = Monomer B (PyrS), N-Alloc pyrrolidine stapling residue, (S)-3-amino-1-(allyloxycarbonyl)pyrrolidine-3-carboxylic acid, C=CCOC(=O)N1CC[C@@](N[*:1])(C(=O)[*:2])C1; MB(6) = Monomer B (PyrS), N-Alloc pyrrolidine stapling residue, forms carbamate staple with R8 by olefin metathesis; R7″ = stapling residue, (R)-2-(6-heptenyl)alanine (drawn only), C=CCCCCC[C@@](C)(N[*:1])C(=O)[*:2]; MB = Monomer B = PyrS, Alloc-pyrrolidine stapling residue (allyl carbamate on pyrrolidine N); MB(13) = Monomer B (PyrS), pyrrolidine stapling residue bearing Alloc; R7 = (R)-2-(6-heptenyl)alanine, C=CCCCCC[C@@](C)(N[*:1])C(=O)[*:2]; MB(5) = Monomer B (PyrS), N-Alloc pyrrolidine stapling residue; dαMeDab(Me) = CN(CC[C@@](C)(N[*:1])C(=O)[*:2])[*:3]; X1 = O=C([C@]1(N[*:1])CCN([*:3])C1)[*:2]; αMeW = C[C@](N)(Cc1c[nH]c2ccccc12)C(=O)O; Met(O2) = CS(=O)(=O)CC[C@H](N)C(=O)O; X2 = O=C(OCC=CCOC(=O)[*:2])[*:1]; 2Pal = N[C@@H](Cc1ccccn1)C(=O)O; 4Pal = N[C@@H](Cc1ccncc1)C(=O)O; R8 = C=CCCCCCC[C@@](C)(N)C(=O)O; αMeL = CC(C)C[C@](C)(N)C(=O)O; Lauroyl = CCCCCCCCCCCC(=O)*; Octanoyl = CCCCCCCC(=O)*; Aib = CC(C)(N)C(=O)O

Test system in one series: not listed separately
In words: Solubility in DPBS (A280 of supernatant). In kind it is physicochemical. The following applies: DPBS, Table 2; read-out: Solubility. As for the experimental part: Suitable assays for assessing solubility are widely known in the art and can be utilized in accordance with the present disclosure. In some embodiments, in an exemplary protocol, dried peptide was reconstituted in DPBS (DPBS, 1×, cell culture grade, Sigma D8537) in triplicate, vortexed, sonicated and then centrifuged. Absorbance of the supernatant was measured at A280 (Nanodrop 2000) and the concentration was determined using the extinction coefficient for tryptophan. Exemplary solubility data are presented in, e.g., Table 2.
In general, solubility refers to the concentration that dissolves in the medium under given conditions. As for `CCCCCCCCCCCC(=O)N[C@@H](C)C(=O)N[C@]1(C)CCN(C)C(=O)OCC=CCOC(=O)N2CC[C@@](C(=O)N[C@@H](CCCNC(=N)N)C(=O)N[C@H](C(=O)N[C@@H](Cc3c[nH]c4ccccc34)C(N)=O)C(C)C)(C2)NC(=O)[C@H]([C@@H](C)CC)NC(=O)[C@H](Cc2c[nH]cn2)NC(=O)[C@H](C)NC(=O)[C@H](CC(=O)O)NC(=O)[C@H](CC(C)C)NC(=O)[C@H]([C@@H](C)CC)NC1=O` [FP0597c_c12, Dodec-A-MG-I-L-D-A-H-I-MB-R-V-W-NH2] (Lauroyl-A[dαMeDab(Me)]ILDAHI[X1]RVW-NH2; linker 2-9 via X2), the solubility was found to be 4 µM (≈ 7.02 µg/mL).

Still in this series, the particulars now being: DPBS; read-out: solubility.
Take `CC[C@H](C)[C@@H]1NC(=O)[C@H](Cc2c[nH]cn2)NC(=O)[C@H](C)NC(=O)[C@H](CC(=O)O)NC(=O)[C@H](CC(C)C)NC(=O)[C@H]([C@@H](C)CC)NC(=O)[C@](C)(NC(=O)[C@H](C)NC(C)=O)CCCCCCC=CCOC(=O)N2CC[C@@](C(=O)N[C@@H](CCCNC(=N)N)C(=O)N[C@H](C(=O)N[C@@H](Cc3c[nH]c4ccccc34)C(N)=O)C(C)C)(C2)NC1=O` (single isomer, unassigned) [FPO217c, Ac-AR8ILDAHIMBRVW (SEQ ID NO: 280)]: the solubility thermodynamic is 7 µM (≈ 11.1 µg/mL).

The series is the same for the next values; noted with them: Table 2; read-out: Solubility.
Regarding `CCCCCCCC(=O)N[C@@H](C)C(=O)N[C@]1(C)CCN(C)C(=O)OCC=CCOC(=O)N2CC[C@@](C(=O)N[C@@H](CCCNC(=N)N)C(=O)N[C@H](C(=O)N[C@@H](Cc3c[nH]c4ccccc34)C(N)=O)C(C)C)(C2)NC(=O)[C@H]([C@@H](C)CC)NC(=O)[C@H](Cc2c[nH]cn2)NC(=O)[C@H](C)NC(=O)[C@H](CC(=O)O)NC(=O)[C@H](CC(C)C)NC(=O)[C@H]([C@@H](C)CC)NC1=O` [FP0597c_c8, Oct-A-MG-I-L-D-A-H-I-MB-R-V-W-NH2] (Octanoyl-A[dαMeDab(Me)]ILDAHI[X1]RVW-NH2; linker 2-9 via X2), the solubility stood at 2 µM (≈ 3.4 µg/mL).

A further series has as its target T1, full-length beta-catenin. In words: competition FP, grade of FP EC50 (+: 500-5000 nM).
Conditions: not given
How it is done:
(§1) In some embodiments, a competition fluorescence polarization assay is used to assess binding of provided compounds to beta-catenin. In an exemplary procedure, solutions of provided compounds, e.g., provided stapled peptides, were prepared in a buffer (e.g., 50 mM Tris pH 8.0, 250 mM NaCl, 2% glycerol, 0.5 mM EDTA, 0.02% w/v sodium azide) using a 3-fold serial dilution from 5 µM. Probe solution (15 nM full-length ß-Catenin, 20 nM FITC labeled peptide in buffer) was prepared and incubated for a period of time, e.g., 5 minutes, and the a volume, e.g., 40 µL per well plated in suitable plate, e.g., a black polystyrene 384-well plate (Corning). Equal volume of the serial diluted peptide was added to the plate and incubated protected from light for 15 minutes prior to read. Reads were performed on a Spectramax M5 (Molecular Devices) in duplicate. Suitable probe was FITC-PEG1-PQ-S5-ILD-S5-HVRRVWR (SEQ ID NO: 1) (hydrocarbon staple formed by two S5 via olefin metathesis) and/or FITC-bA-PQ-S5-ILD-S5-HVRRVWR (SEQ ID NO: 3) (hydrocarbon staple formed by two S5 via olefin metathesis). […] Another peptide, FPO217c (Ac-AR_8ILDAHIM$B5$RVW (SEQ ID NO: 280), with N-terminal proline removed and valine replaced with isoleucine compared to FP0025c) was prepared.
Consider AXILDAHIXRVW (not fully specified; Ac-A-R4-I-L-D-A-H-I-MH-R-V-W-NH2; amino staple R4/MH) [FP0509a], for which the “FP EC50” value fell in the range of 500 to 5000 nM. On to Ac-A[R7″]ILDAHI[MA]RVW-NH2 (staple 2-9; not fully specified; printed as Ac-A-R7-I-L-D-A-H-I-MA-R-V-W-NH2) [FP0516a Isomer 2], for which the “FP EC50” value was in the range of 500 to 5000 nM. The same measure, in the same setting: the result for Ac-A[R8]ILDAHI[MB]RVW-NH2 (staple 2-9; also: Isomer 1, staple olefin E/Z not assigned, also called FPO217c Isomer 1) [FP0217c Isomer 1] reads 500 to 5000 nM; that for B1, 500 to 5000 nM; that for AXILDAHIXRVW (not fully specified; Ac-A-MI-I-L-D-A-H-I-S6-R-V-W-NH2; carbamate staple MI/S6) [FP0507c], 500 to 5000 nM. Consider B2, for which the “FP EC50” value was 500 to 5000 nM. With Ac-A[R8]IL[Met(O2)]AHI[MB(5)]RVW-NH2 (staple 2-9) [FP0629c], the “FP EC50” value lay in the range of 500 to 5000 nM.

For B3, the “FP EC50” value was in the range of 500 to 5000 nM. As for AXALDAHIXRVW (not fully specified; Ac-A-R8-A-L-D-A-H-I-MB-R-V-W-NH2; carbamate staple R8/MB) [FP0405c], the “FP EC50” value lay in the range of 500 to 5000 nM.

Regarding Ac-A[R8]ILDAHI[MB(4)]R[αMeL]W-NH2 (staple 2-9) [FP0633c], the “FP EC50” value lay within 500 to 5000 nM. With AXILAAHIXRVW (not fully specified; Ac-A-R8-I-L-A-A-H-I-MB-R-V-W-NH2; carbamate staple R8/MB) [FP0407c], the “FP EC50” value lay within 500 to 5000 nM. Consider Ac-A[R8]ILDA[4Pal]I[MB(13)]RVW-NH2 (staple 2-9) [FP0538c], for which the “FP EC50” value fell in the range of 500 to 5000 nM. Still for that read-out and setting: the result for Ac-A[R8]ILDAHI[MB(10)]SVW-NH2 (staple 2-9) [FP0542c] reads 500 to 5000 nM; that for AXILDAHIXRVW (not fully specified; Ac-A-R5-I-L-D-A-H-I-MH-R-V-W-NH2; amino staple R5/MH) [FP0510a], 500 to 5000 nM; that for Ac-A[R8]ILDAHI[MB(4)]RV[αMeW]-NH2 (staple 2-9) [FP0631c], 500 to 5000 nM.

For AXILDAHIXRVW (not fully specified; Ac-A-MG-I-L-D-A-H-I-ME-R-V-W-NH2; carbamate staple MG/ME) [FP0596c], the “FP EC50” value lay in the range of 500 to 5000 nM.

In the next series the target is T1, full-length beta-catenin. In words: competition FP; NB = no binding detected.
Conditions: not given
As for the experimental part: as §1
For the molecule B4, the binding result is listed as “no binding”. In the case of B5, the binding result was “no binding”.
